The values below are quoted from earlier work in US20080089848A1, “INTRATHECAL INJECTION OF MICROBUBBLES” (priority 2006, published 2008).

For series [1] the following is noted: infusion of tPA and microbubbles.
Series [2] concerns stroke. Particulars: intracisternal injection into the cisterna magna, rats.

B1: tPA: thrombolytic agent (protein, UniProt P00750 36-562, looked up)
Tissue-type plasminogen …: SYQVICRDEKTQMIYQQHQSWLRPVLRSNRVEYCWCNSGRAQCHSVPVKSCSEPRCFNGGTCQQALYFSDFVCQCPEGFAGKCCEIDTRATCYEDQGISYRGTWSTAESGAECTNWNSSALAQKPYSGRRPDAIRLGLGNHNYCRNPDRDSKPWCYVFKAGKYSSEFCSTPACSEGNSDCYFGNGSAYRGTHSLTESGASCLPWNSMILIGKVYTAQNPSAQALGLGKHNYCRNPDGDAKPWCHVLKNRRLTWEYCDVPSCSTCGLRQYSQPQFRIKGGLFADIASHPWQAAIFAKHRRSPGERFLCGGILISSCWILSAAHCFQERFPPHHLTVILGRTYRVVPGEEEQKFEVEKYIVHKEFDDDTYDNDIALLQLKSDSSRCAQESSVVRTVCLPPADLQLPDWTECELSGYGKHEALSPFYSERLKEAHVRLYPSSRCTSQHLLNRTVTDNMLCAGDTRSGGPQANLHDACQGDSGGPLVCLNDGRMTLVGIISWGLGCGQKDVPGVYTKVTNYLDWIRDNMRP
B1: the clot lysis result in series [1] was “accelerate clot lysis”.

B2: BMP-7: bone morphogenetic protein (protein, UniProt P18075 293-431, looked up)
Bone morphogenetic protein 7: STGSKQRSQNRSKTPKNQEALRMANVAENSSSDQRQACKKHELYVSFRDLGWQDWIIAPEGYAAYYCEGECAFPLNSYMNATNHAIVQTLVHFINPETVPKPCCAPTQLNAISVLYFDDSSNVILKKYRNMVVRACGCH
B2: the “functional recovery of neurons after stroke” value in series [2] is “promotes functional recovery”.
